Source: PMC9596381 (2022)
Like-named read-outs stand apart in the source and are kept apart here.

Experiments:
[1] = target: T1, human glypican-3 core domain, residues 32-483 (hGPC3^core) (human, UniProt P51654 32-483, N-linked glycans at N124 and N241); experiment: SPR
[2] = target: T1, human glypican-3 core domain, residues …; experiment: SPR; remark: listed apart in the source

T1 sequence (P51654 32-483): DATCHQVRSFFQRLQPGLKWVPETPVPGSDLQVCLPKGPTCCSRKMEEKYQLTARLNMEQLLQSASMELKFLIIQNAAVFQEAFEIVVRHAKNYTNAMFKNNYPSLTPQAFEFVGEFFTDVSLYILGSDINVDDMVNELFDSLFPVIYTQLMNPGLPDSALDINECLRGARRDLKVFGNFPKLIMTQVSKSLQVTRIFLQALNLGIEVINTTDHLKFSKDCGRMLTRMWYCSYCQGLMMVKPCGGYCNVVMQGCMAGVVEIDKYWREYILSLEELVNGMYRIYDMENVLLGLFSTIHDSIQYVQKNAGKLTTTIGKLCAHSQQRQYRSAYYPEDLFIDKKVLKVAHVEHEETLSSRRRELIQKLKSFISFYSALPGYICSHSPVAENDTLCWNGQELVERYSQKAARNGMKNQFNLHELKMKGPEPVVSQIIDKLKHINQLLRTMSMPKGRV

Kd [1] | Kd [2] | Binder
3300 nM | – | mouse Unc5C ectodomain (domain or fragment, biotin on the Avi-tag) not shown
– | 265 nM | Rattus norvegicus Unc5D residues 32-307 (rUnc5D^IgIgTSP) (domain or fragment, C-mannosylated tryptophans W253 and W256 (TSP1)) not shown
